The target of this experiment is SARS-CoV-2 S HexaPro (Spike 6P) ectodomain trimer (SARS-CoV-2 | not stated) (UniProt P0DTC2). Description: cryo-EM structure.

In general, stoichiometry N refers to a count of units in the complex or per binding partner.

Take “SARS-CoV-2 S HexaPro (Spike 6P) ectodomain trimer (from UniProt P0DTC2 14-1208) (domain or fragment)”: the stoichiometry N was 3 protomers.

The values are drawn from article PMC12053377.
